Data: US6428579B1, “Implantable prosthetic devices coated with bioactive molecules” (Brown University Research Foundation, priority 1999, dated 2002)

Assay: Surface plasmon resonance of peptide adsorption on gold
Type: physicochemical
Conditions: best fit of SPR spectra, Fresnel theory
Text: Surface plasmon resonance (SPR) was produced when a beam of p-polarized laser light impinges onto the surface of a thin metal film. The light was coupled to the metal film through a prism which was mounted on a rotating turntable. At a particular angle of incidence the E-field of the laser light interacts with the surface bound free electrons of the metal film in such a way that a charge density wave was generated at the interface of the metal and air. This excitation results in a sharp reduction in the magnitude of the reflected light (measured with a photodiode). The angle at which this occurs together with the depth and half-width of the minimum were determined by the thickness and complex refractive index of the metal film. The magnitude of the evanescent field which arises from the charge density wave decays exponentially in the direction normal to the surface. […] By fitting the Fresnel equations, firstly to the date for the uncoated metal film, and then to the metal plus thin film, the thicknesses and complex refractive indices of the metal and peptide overlayer were determined. […] Another practical advantage of this method is that peptide chemistry can be determined in aqueous environments rather than the ultrahigh vacuums needed for other surface-sensitive techniques (e.g. ESCA). […]

Q: Which “Film thickness of peptide layer” value does the source give for “Arg-Gly-Asp-Cys (RGDC; printed: Arg-Gly-Asp-Cys) [fibronectin related peptide, cysteine terminated]” here?
A: 23-25 Å
